To fix the notation:
B5: Vps4^E233Q (enzyme)
chain: MSTGDFLTKGIELVQKAIDLDTATQYEEAYTAYYNGLDYLMLALKYEKNPKSKDLIRAKFTEYLNRAEQLKKHLESEEANAAKKSPSAGSGSNGGNKKISQEEGEDNGGEDNKKLRGALSSAILSEKPNVKWEDVAGLEGAKEALKEAVILPVKFPHLFKGNRKPTSGILLYGPPGTGKSYLAKAVATEANSTFFSVSSSDLVSKWMGESEKLVKQLFAMARENKPSIIFIDQVDALTGTRGEGESEASRRIKTELLVQMNGVGNDSQGVLVLGATNIPWQLDSAIRRRFERRIYIPLPDLAARTTMFEINVGDTPCVLTKEDYRTLGAMTEGYSGSDIAVVVKDALMQPIRKIQSATHFKDVSTEDDETRKLTPCSPGDDGAIEMSWTDIEADELKEPDLTIKDFLKAIKSTRPTVNEDDLLKQEQFTRDFGQEGN
B9: Vta1 (purified recombinant, bacterially expressed) (natural protein)
chain: MASNAARVVATAKDFDKVGLGIIGYYLQLYAVELILSEEDRSQEMTALATELLDTIEAFKKEIGGESEAEDSDKSLHVMNTLIHDQEKAKIYMLNFTMSLYNEKLKQLKDGPWDVMLKRSLWCCIDLFSCILHLWKENISETSTNSLQKRIKYCKIYLSKLAKGEIGSSDEKTLDYADFADDSEEIKDEDVDHQTSDLENNNNDKVEGLAPKDQTTSYEPVDEVPEFIDDADSVNEEEQTVDKNEDAITKDEQQVVKKEVDLTRPSAPSEPAAAEHKSYTKDELTKIMDRASKIEQIQKLAKYAISALNYEDLPTAKDELTKALDLLNSI

Data set [1] concerns the target B5. The data set can be described thus: pull-down.
Data set [2] addresses Vps4 (yeast) (UniProt P52917).
Data set [3] has as its target B9. Briefly: SEC.
Data set [4] concerns the molecule itself. The data set can be described thus: SEC.
Data set [5] concerns the molecule itself. Briefly: AUC.
The target in data set [6] is B5. Briefly: SEC.

B1: GST-Vta1^Δ37–68 (natural protein)
chain: MASNAARVVATAKDFDKVGLGIIGYYLQLYAVELILAEDSDKSLHVMNTLIHDQEKAKIYMLNFTMSLYNEKLKQLKDGPWDVMLKRSLWCCIDLFSCILHLWKENISETSTNSLQKRIKYCKIYLSKLAKGEIGSSDEKTLDYADFADDSEEIKDEDVDHQTSDLENNNNDKVEGLAPKDQTTSYEPVDEVPEFIDDADSVNEEEQTVDKNEDAITKDEQQVVKKEVDLTRPSAPSEPAAAEHKSYTKDELTKIMDRASKIEQIQKLAKYAISALNYEDLPTAKDELTKALDLLNSI
For B1, the binding result in data set [1] is recorded as “binds”. Still for that read-out and setting: in the case of EDFARAQKYCKYAGSALQYEDVSTAVQNLQKALKLLTTGRE (domain or fragment) [GST-VSL^SBP1] it was “binds”.

B2: GST-Vta1^ΔN68 (domain or fragment)
chain: AEDSDKSLHVMNTLIHDQEKAKIYMLNFTMSLYNEKLKQLKDGPWDVMLKRSLWCCIDLFSCILHLWKENISETSTNSLQKRIKYCKIYLSKLAKGEIGSSDEKTLDYADFADDSEEIKDEDVDHQTSDLENNNNDKVEGLAPKDQTTSYEPVDEVPEFIDDADSVNEEEQTVDKNEDAITKDEQQVVKKEVDLTRPSAPSEPAAAEHKSYTKDELTKIMDRASKIEQIQKLAKYAISALNYEDLPTAKDELTKALDLLNSI
As to B2, in data set [1], the binding result is reported as “binds”.

B3: GST-SBP1 (natural protein)
chain: MAALAPLPPLPAQFKSIQHHLRTAQEHDKRDPVVAYYCRLYAMQTGMKIDSKTPECRKFLSKLMDQLEALKKQLGDNEAITQEIVGCAHLENYALKMFLYADNEDRAGRFHKNMIKSFYTASLLIDVITVFGELTDENVKHRKYARWKATYIHNCLKNGETPQAGPVGIEEDNDIEENEDAGAASLPTQPTQPSSSSTYDPSNMPSGNYTGIQIPPGAHAPANTPAEVPHSTGVASNTIQPTPQTIPAIDPALFNTISQGDVRLTPEDFARAQKYCKYAGSALQYEDVSTAVQNLQKALKLLTTGRE
Regarding B3, the binding result in data set [1] is “binds”.

B4: Vps4 (enzyme)
chain: MSTGDFLTKGIELVQKAIDLDTATQYEEAYTAYYNGLDYLMLALKYEKNPKSKDLIRAKFTEYLNRAEQLKKHLESEEANAAKKSPSAGSGSNGGNKKISQEEGEDNGGEDNKKLRGALSSAILSEKPNVKWEDVAGLEGAKEALKEAVILPVKFPHLFKGNRKPTSGILLYGPPGTGKSYLAKAVATEANSTFFSVSSSDLVSKWMGESEKLVKQLFAMARENKPSIIFIDEVDALTGTRGEGESEASRRIKTELLVQMNGVGNDSQGVLVLGATNIPWQLDSAIRRRFERRIYIPLPDLAARTTMFEINVGDTPCVLTKEDYRTLGAMTEGYSGSDIAVVVKDALMQPIRKIQSATHFKDVSTEDDETRKLTPCSPGDDGAIEMSWTDIEADELKEPDLTIKDFLKAIKSTRPTVNEDDLLKQEQFTRDFGQEGN
B4: in data set [2], the Km of the Vps4 protein concentration-dependent ATPase activity, with 1 μM Vta1 came out at 0.118 µM; the Km of the Vps4 protein concentration-dependent ATPase activity, with 6 μM Vta1 is 0.069 µM; the Km of the Vps4 protein concentration-dependent ATPase activity, without Vta1 worked out at 1.1 µM.

In the case of B5, the “stoichiometry N” value in data set [3] was about 1; in data set [4] it was 2.

B6: GST-Vta1 (natural protein)
chain: MASNAARVVATAKDFDKVGLGIIGYYLQLYAVELILSEEDRSQEMTALATELLDTIEAFKKEIGGESEAEDSDKSLHVMNTLIHDQEKAKIYMLNFTMSLYNEKLKQLKDGPWDVMLKRSLWCCIDLFSCILHLWKENISETSTNSLQKRIKYCKIYLSKLAKGEIGSSDEKTLDYADFADDSEEIKDEDVDHQTSDLENNNNDKVEGLAPKDQTTSYEPVDEVPEFIDDADSVNEEEQTVDKNEDAITKDEQQVVKKEVDLTRPSAPSEPAAAEHKSYTKDELTKIMDRASKIEQIQKLAKYAISALNYEDLPTAKDELTKALDLLNSI
On to B6, for which, in data set [1], the binding result is on record as “binds”.

B7: GST-Vta1^K322A (natural protein)
chain: MASNAARVVATAKDFDKVGLGIIGYYLQLYAVELILSEEDRSQEMTALATELLDTIEAFKKEIGGESEAEDSDKSLHVMNTLIHDQEKAKIYMLNFTMSLYNEKLKQLKDGPWDVMLKRSLWCCIDLFSCILHLWKENISETSTNSLQKRIKYCKIYLSKLAKGEIGSSDEKTLDYADFADDSEEIKDEDVDHQTSDLENNNNDKVEGLAPKDQTTSYEPVDEVPEFIDDADSVNEEEQTVDKNEDAITKDEQQVVKKEVDLTRPSAPSEPAAAEHKSYTKDELTKIMDRASKIEQIQKLAKYAISALNYEDLPTAKDELTAALDLLNSI
For B7, the binding result in data set [1] is “binds”.

B8: His6-Vta1 (natural protein)
chain: MASNAARVVATAKDFDKVGLGIIGYYLQLYAVELILSEEDRSQEMTALATELLDTIEAFKKEIGGESEAEDSDKSLHVMNTLIHDQEKAKIYMLNFTMSLYNEKLKQLKDGPWDVMLKRSLWCCIDLFSCILHLWKENISETSTNSLQKRIKYCKIYLSKLAKGEIGSSDEKTLDYADFADDSEEIKDEDVDHQTSDLENNNNDKVEGLAPKDQTTSYEPVDEVPEFIDDADSVNEEEQTVDKNEDAITKDEQQVVKKEVDLTRPSAPSEPAAAEHKSYTKDELTKIMDRASKIEQIQKLAKYAISALNYEDLPTAKDELTKALDLLNSI
On to B8, for which, in data set [5], the “stoichiometry N” value turned out to be 2. Turning to B9, in data set [6], the binding result is reported as “binds”.

B10: GST-Vta1^S306A (natural protein)
chain: MASNAARVVATAKDFDKVGLGIIGYYLQLYAVELILSEEDRSQEMTALATELLDTIEAFKKEIGGESEAEDSDKSLHVMNTLIHDQEKAKIYMLNFTMSLYNEKLKQLKDGPWDVMLKRSLWCCIDLFSCILHLWKENISETSTNSLQKRIKYCKIYLSKLAKGEIGSSDEKTLDYADFADDSEEIKDEDVDHQTSDLENNNNDKVEGLAPKDQTTSYEPVDEVPEFIDDADSVNEEEQTVDKNEDAITKDEQQVVKKEVDLTRPSAPSEPAAAEHKSYTKDELTKIMDRASKIEQIQKLAKYAIAALNYEDLPTAKDELTKALDLLNSI
For the molecule B10, the binding result in data set [1] is “binds”. For RASKIEQIQKLAKYAISALNYEDLPTAKDELTKALDLLNSI (domain or fragment) [GST-VSL^Vta1], in data set [1], the binding result was “binds”.

Source of the values: paper PMC2063703 (The Journal of Cell Biology, 2006).
